Results as given in US20190194358A1 (ARIZONA BOARD OF REGENTS A BODY CORPORATE OF THE STATE OF …, published 2019).
Ends that are not written are not given here.

Assays:
AKT1 = molecular target: T1, AKT1 (human, UniProt P31749 1-480, limits assumed); test: SPR
T1 construct: GST fusion on the Protoarray; also called AKT1_HUMAN; human AKT1

CHAF1B = molecular target: T2, CHAF1B (human, UniProt Q13112); test: Invitrogen ProtoArray Human Protein Microarray v4.0; biotinylated synbody, fluorescently labelled streptavidin; fluorescence intensity above background
T2 construct: GST fusion on the array
Procedure: (§1) The prescribed cover slip was placed over the array and adjusted to remove air bubbles. The array was incubated in a 50 ml conical tube, printed side up, for 1.5 hours at 4 C without shaking. The array was then removed from the conical tube inserted diagonally into the array chamber, kept on ice. 8 ml probing buffer was added to the chamber wall. The cover slip was removed and the array was incubated in probing buffer for 1 minute on ice. The probing buffer was decanted and drained. Two further washings were performed adding 8 ml probing buffer, incubating on ice for 1 minute, and decanting and draining. 5 nM fluorescently labeled streptavidin diluted in 6 ml probing buffer was incubated on the array for 30 minutes on ice in the dark, after which the solution was decanted and drained. Three wash steps were performed, each by adding 8 ml probing buffer, incubating for 1 minute on ice, decanting, and draining. The array was removed from the chamber, centrifuged at 800×g for 5 minutes at room temperature. The array was dried in the dark for 60 minutes at room temperature, after which it was scanned using a fluorescent microarray scanner and data was taken and analyzed.

MCCC1 = molecular target: T3, MCCC1 (human, UniProt Q96RQ3); test: as above
T3 construct: GST fusion on the array
T3 sequence (looked up): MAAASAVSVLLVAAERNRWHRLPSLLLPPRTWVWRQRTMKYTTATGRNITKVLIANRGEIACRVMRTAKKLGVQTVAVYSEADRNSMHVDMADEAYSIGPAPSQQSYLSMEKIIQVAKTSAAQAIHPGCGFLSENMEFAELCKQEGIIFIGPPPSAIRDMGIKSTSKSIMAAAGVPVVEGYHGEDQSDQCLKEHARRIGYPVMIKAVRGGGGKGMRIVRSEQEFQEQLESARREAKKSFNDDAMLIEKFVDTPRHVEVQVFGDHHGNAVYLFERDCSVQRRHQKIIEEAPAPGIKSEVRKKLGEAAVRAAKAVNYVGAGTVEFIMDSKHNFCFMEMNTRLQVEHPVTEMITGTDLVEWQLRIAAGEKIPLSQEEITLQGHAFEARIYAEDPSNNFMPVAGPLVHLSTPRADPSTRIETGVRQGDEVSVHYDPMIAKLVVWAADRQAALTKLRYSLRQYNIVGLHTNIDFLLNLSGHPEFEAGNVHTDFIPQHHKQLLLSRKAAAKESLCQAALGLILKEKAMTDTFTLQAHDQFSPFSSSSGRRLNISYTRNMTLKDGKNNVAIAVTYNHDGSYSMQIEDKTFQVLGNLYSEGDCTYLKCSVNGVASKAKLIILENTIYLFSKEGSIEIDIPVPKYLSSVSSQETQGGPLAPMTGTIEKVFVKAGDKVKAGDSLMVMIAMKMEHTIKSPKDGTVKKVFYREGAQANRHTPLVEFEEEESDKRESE
Procedure: as §1

HTN1 = molecular target: T4, HTN1 (human, UniProt P15515, limits assumed); test: as above
T4 construct: GST fusion on the array
T4 chain (looked up): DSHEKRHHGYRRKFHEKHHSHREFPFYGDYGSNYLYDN
Procedure: as §1

ACTC = molecular target: T5, ACTC (human, UniProt P68032); test: as above
T5 construct: GST fusion on the array
Procedure: as §1

CLEC1 = molecular target: T6, CLEC1 (human, UniProt Q8NC01); test: as above
T6 construct: GST fusion on the array
T6 sequence (looked up): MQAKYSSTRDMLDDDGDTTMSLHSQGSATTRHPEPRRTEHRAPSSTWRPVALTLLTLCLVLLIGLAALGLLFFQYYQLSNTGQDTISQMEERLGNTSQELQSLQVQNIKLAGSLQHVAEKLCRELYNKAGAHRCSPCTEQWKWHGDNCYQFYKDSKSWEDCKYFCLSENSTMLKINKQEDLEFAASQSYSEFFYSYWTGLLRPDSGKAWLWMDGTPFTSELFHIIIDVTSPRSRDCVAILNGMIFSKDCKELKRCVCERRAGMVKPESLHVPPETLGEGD
Procedure: as §1

T1 sequence (P31749 whole entry, the tested form may be a part): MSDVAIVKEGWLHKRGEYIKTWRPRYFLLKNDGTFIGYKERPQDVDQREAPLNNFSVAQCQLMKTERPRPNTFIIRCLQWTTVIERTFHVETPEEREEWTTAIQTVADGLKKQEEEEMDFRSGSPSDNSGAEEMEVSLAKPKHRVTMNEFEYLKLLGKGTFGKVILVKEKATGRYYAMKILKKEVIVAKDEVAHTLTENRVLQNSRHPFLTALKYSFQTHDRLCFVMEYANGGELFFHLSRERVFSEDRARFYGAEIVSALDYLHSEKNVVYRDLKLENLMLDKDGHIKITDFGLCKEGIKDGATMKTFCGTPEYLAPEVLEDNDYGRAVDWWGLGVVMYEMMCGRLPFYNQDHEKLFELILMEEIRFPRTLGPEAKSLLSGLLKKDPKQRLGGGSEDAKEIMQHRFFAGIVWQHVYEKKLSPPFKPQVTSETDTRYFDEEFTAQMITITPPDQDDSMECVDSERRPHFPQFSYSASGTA
T2 sequence (Q13112 whole entry, the tested form may be a part): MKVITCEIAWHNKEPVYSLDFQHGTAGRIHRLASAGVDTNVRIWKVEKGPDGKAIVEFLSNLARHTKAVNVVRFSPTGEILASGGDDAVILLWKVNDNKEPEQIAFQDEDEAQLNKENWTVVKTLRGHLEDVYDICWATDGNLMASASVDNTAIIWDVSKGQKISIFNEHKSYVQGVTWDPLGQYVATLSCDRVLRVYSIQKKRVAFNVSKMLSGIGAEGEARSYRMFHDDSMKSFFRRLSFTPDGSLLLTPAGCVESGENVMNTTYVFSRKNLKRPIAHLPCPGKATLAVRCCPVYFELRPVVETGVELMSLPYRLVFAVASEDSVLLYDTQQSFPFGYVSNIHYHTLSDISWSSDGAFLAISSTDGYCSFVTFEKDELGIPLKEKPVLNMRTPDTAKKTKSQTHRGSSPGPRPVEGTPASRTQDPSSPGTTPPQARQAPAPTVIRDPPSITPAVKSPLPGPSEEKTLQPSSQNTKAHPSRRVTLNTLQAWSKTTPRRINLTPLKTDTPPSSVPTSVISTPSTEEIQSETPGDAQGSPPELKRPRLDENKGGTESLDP

Kd (AKT1): ~1 nM
binding result (CHAF1B): binds
binding result (MCCC1): binds
binding result (HTN1): binds
binding result (ACTC): binds
binding result (CLEC1): binds
B1: SYN23-26 (designed binder)
peptide 1: AHKVVPQRQIRHAYNRYGSG
peptide 2: FRGWAHIFFGPHVIYRGGSG
modifications: also: two chains joined by their C-termini to a branching Lys (epsilon/alpha N), Lys linker followed by Cys, Cys thiol biotinylated
notes: Lysine linker followed by cysteine; the thiol of the cysteine biotinylated for the protein array; also called anti-TRF synbody
